Data reported in patent publication US20240287172A1 (SCIRHOM, published 2024).

target: T1, hiR2-FL-L539A-T7 (human, UniProt Q6PJF5 1-856); assay: FACS, MEF-DKO cells, 3 µg/ml
T1 construct: on MEF-DKO cells
T1 sequence: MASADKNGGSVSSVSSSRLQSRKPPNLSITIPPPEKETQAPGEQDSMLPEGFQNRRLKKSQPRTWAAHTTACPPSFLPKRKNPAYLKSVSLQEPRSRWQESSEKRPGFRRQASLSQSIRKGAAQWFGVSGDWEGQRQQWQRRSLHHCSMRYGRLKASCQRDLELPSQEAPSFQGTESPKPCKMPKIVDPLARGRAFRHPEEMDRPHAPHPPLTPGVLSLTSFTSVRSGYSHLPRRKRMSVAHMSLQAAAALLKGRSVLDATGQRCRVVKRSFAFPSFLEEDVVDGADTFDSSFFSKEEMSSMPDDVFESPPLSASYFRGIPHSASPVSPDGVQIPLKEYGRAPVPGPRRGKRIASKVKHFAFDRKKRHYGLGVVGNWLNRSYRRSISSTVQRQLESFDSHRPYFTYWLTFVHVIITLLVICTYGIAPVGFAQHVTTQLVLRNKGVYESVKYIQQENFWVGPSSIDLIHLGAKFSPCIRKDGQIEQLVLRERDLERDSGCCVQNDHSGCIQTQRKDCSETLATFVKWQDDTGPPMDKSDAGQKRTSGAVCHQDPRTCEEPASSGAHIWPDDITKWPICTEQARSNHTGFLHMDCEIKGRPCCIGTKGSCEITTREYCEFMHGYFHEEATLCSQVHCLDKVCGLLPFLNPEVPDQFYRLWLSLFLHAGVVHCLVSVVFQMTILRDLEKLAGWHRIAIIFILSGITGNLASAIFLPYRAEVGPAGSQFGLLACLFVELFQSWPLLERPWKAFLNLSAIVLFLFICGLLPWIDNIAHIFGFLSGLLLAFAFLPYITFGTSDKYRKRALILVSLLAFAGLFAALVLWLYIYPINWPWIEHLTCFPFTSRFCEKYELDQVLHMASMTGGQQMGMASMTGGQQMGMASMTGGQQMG

Binder | loss of binding vs wild type [%]
antibody 34 (antibody, V domains shown, mouse IgG, kappa light chain; also called clone #34; purified antibody 34) VH: QVTLKESGPGILQPSQTLSLTCSFSGFSLSTFSLGVGWIRQSSGKGLEWLAHIWWDDEKYYNPALKSRLTISKDTSKNQVFLKIANVDAADTATYYCARAYYSKSYYALDYWGQGTSVTVSS VL: DIQMTQSPSSLSASLGERVSLTCRASQEISGYLSWLQQKPDGTIKRLIYAASTLDSGVPKRFSGSRSGSDYSLAISSLESEDFADYYCLQYANFPFTFGSGTKLEIK | ≥ 95
antibody 16 (antibody, V domains shown, mouse IgG, kappa light chain; also called clone #16; purified antibody 16) VH: QVTLKESGPGILQPSQTLSLTCSFSGFSLSTFALGVGWIRQPSGRGLEWLAHIWWDDDKYYNPALKSRLTISKDTSKNHVFLKIANVDTADTATYYCARITTYYYGMDYWGQGTSVTVSS VL: DIVLSQSPATLSVTPGDSVSLFCRASQSIGNHLHWYQQESHASPRLLIKYASQSISGIPSRFSGSGSGTDFTLSINSVETEDFGMYFCQQSYNWPLTFGAGTKLELK | ≥ 30
antibody 3 (antibody, V domains shown, mouse IgG, kappa light chain; also called clone #3; purified antibody 3) VH: QVTLKESGPGILQPSQTLSLTCSFSGFSLTTFAMGIGWVRQPSGKGLEWLAHIWWDGEKYNNPVLKSRLTISKDTSKNQVFLRIANVDTPDTATYYCARISSIYYIIDNWGQGTSVTVSS VL: DIVLTQSPATLSVTPGHSVSLSCRASQSISNNLHWYQKKSHESPRLLIKYVSQSISGIPSRFSGSGSGTDFTLSINSVETEDFGMYFCQQSYNWPLTFGAGTKLELK | ≥ 95
antibody 5 (antibody, V domains shown, mouse IgG, kappa light chain; also called clone #5; purified antibody 5) VH: QVTLKESGPGILQPSQTLSLTCSFSGFSLSTFGMGVGWIRQPSGKGLEWLAHIWWDDEKYYNSALKSRLTISKATSKNQAFLKIANVDTADTATYYCARISNYGSNYWYFNVWGTGTTVTVSS VL: QVVLTQSPALMSASPGEKVTMTCSAGSSVSCMYWYQQKPGSSPRVLIYDTSNLASGVPARFTGSGSGTSYSLTISRMEAEDAASYYCQQWNSYPLTFGAGTKLELK | ≥ 95
antibody 44 (antibody, V domains shown, mouse IgG, kappa light chain; also called clone #44; purified antibody 44) VH: QVTLKESGPGILQPSQTLSLTCSFSGFSLSTFGMGVGWIRQPSEKGLEWLAHIWWDDDKYYNPALKSRLTISKDTSKNQIFLKITNVDTAETATYYCSRIGNYGSNYWYFDVWGTGTTVTVSS VL: QIVLTQSPAVMSASPGEKVTMTCTASSSVYYMYWYQQTPGSSPRLLIYDTSNLASGVPVRFSGSGSGTSYSLTISRMEAEDAATYYCQQWNTYPLTFGAGTKLELK | ≥ 95
antibody 42 (antibody, V domains shown, mouse IgG, kappa light chain; also called clone #42; purified antibody 42) VH: QVTLKESGPGILQPSQTLSLTCSLSGFSLSTFGRGVGWIRQPSGKGLEWLAHIWWDDEKYYNPALKSRLTISKDTSKNQVFLRIANVDTADTATYYCARIQNYGSNYWYFDVWGTGTTVTVSS VL: LIVLTQSPAIMSASPGEKVTMTCGATSRISYMFWYQQKPGSSPRVLIYDTSNLASGVPVRFSGSGSGTSYSLTISRVEAEDVATYYCQQWNSYPLTFGAGTKLELK | ≥ 95
antibody 43 (antibody, V domains shown, mouse IgG, kappa light chain; also called clone #43; purified antibody 43) VH: QVALKESGPGILQPSQTLSLTCSFSGFSLSTFGMGVGWIRQSSGKGLEWLANIWWDDDKYYNPALKSRLTISKDASKNQAFLKIANVDTADTATYYCARIGNYGSNYWYFDVWGTGTTVTVSS VL: QIVLTQSPAIMSASPGERVTMTCSANSRISYMYWYQQKPGSSPRLLIYDTSNLASGVPVRFSGSGSGTSYSLTISRMEAEDAATYNCQQWSSYPLTFGAGTKLELK | ≥ 95
antibody 22 (antibody, V domains shown, mouse IgG, kappa light chain; also called clone #22; purified antibody 22) VH: QVTLKESGPGILQPSQTLSLTCSFSGFSLSTFGMGVGWIRQPSGKGLEWLAHIWWDDEKYYNSALKSRLTISKATSKNQVFLKIANVDTADTATYYCARISNYGSNYWYFNVWGTGTTVTVSS VL: QVVLTQSPALMSASPGEKVTMTCSAGSSVSYMYWYQQKPGSSPRVLIYDTSNLASGVPARFTGSGSGTSYSLTISRMEAEDAATYYCQQWNSYPLTFGAGTKLELK | ≥ 95
antibody 48 (antibody, V domains shown, mouse IgG, kappa light chain; also called clone #48; purified antibody 48) VH: QVQLQQSGTELVRPGTSVKVSCKASGYAFTNYLIEWVKQRPGQGLEWIGVINPGSGFTKYNEKFKGKATLTADKSSSTVYMHLSSLTSEDSAVYFCARGLYRAMDYWGQGTSVTVSS VL: DIQMTQSPASQSASLGESVTITCLASQTIATWLAWYQQKPGKSPQLLIYGATTLADGVPSRFSGGGSGTKFSFKISSLQAEDFVSYYCQQLYSTPYTFGGGTKLEIK | ≥ 30
